Measured values taken from patent US20220056111A1 (YUROGEN BIOSYSTEMS, published 2022).

B1: rabbit monoclonal antibody 1H1 against the SARS-CoV-2 S1 (antibody, V domains shown)
VH: QSLEESGGDLVKPGASLTLTCTASGFSFSSGYDMCWVRQAPGKGLEWIACIGTGSSGNIYYASWAKGRFTISKTSSTTVTLQMTSLTAADTATYFCARDDADYAGPDYFNLWGPGTLVTVSS
VL: DIVMTQTPASVSEPVGGTVTIKCQASESISNWLAWYQQKPGQPPKLLIYAAFTLASGVPSRFKGSGSGTQFTLTINGVECADAATYYCQQTYSSRDVDNVFGGGTEVVVKG
B2: rabbit monoclonal antibody 9A5 against the SARS-CoV-2 S1 (antibody, V domains shown)
VH: QSVEESGGRLVTPGTPLTLTCTVSGFSLSAYQMIWVRQTPGKGLEYIGIMHTGTSAYYANWAKGRFTISKTSSTTVDLKMTSPTTEDTATYFCGRNLNEGFTGAYPFNLWGPGTLVAVSS
VL: DVVMTQTPASVEAAVGGTVTIKCQASQSIGSNLAWYQKKPGQPPKLLIYQASNLASGVPSRFKGSGSGTQFTLTISDLECADAATYYCQMNYYISSSYTYTFGGGTEVVVKG
B3: rabbit monoclonal antibody 1A3 against the SARS-CoV-2 S1 (antibody, V domains shown)
VH: QSLEESGGRLVTPGTPLTLTCTVSGFSFSSYHMGWVRQAPGEGLEWIGTLIGIAGNTYYASWAKGRFSISKTSTTVDLKMTSPTTEDTATYWCARIVTATFEFWGPGTLVTVSS
VL: AQVLTQTPSPVSAAVGGTVTISCQASQSVNMNLLSWFQQKPGQPPKLLIYQASNLASGVSARFKGSGSGTQFTLTINEIQCDDAATYYCQGDMGGWMFPFGGGTEVVVTG
B4: rabbit monoclonal antibody 7G5 against the SARS-CoV-2 S1 (antibody, V domains shown)
VH: QEQLEESGGDLVKPGASLTLTCTASGFSFSSAYYMCWVRQAPGKGLEWIACIGVDSGGNSYYASWAKGRFTISTTSSTTVTLQMTSLTAADKATYFCTRSFSLWGPGTLVTISS
VL: RKWLTQTASSVSAAVGGTVTISCQASQSVYNNDNLAWFQQRPGQPPKLLIYLASNLASGVPPRFSGSGSGTQFTLTISDVQCDDAATYYCLGGYDCSNADCHAFGGGTEVVVKG
B5: rabbit monoclonal antibody 1D2 against the SARS-CoV-2 S1 (antibody, V domains shown)
VH: QSVEESGGRLVTPGTSLTLTCTVSGIDIETYWMSWVRQAPGKGLEWIAIITSHDHSGYANWAEGRFTISKTSTTVTLTITDLQPSDTGTYFCAKDVGHSTYDLWGPGTLVTVSS
VL: AAVLTQTPSPVSAAVGGTVTISCQSSESVLSNNRLSWYQQKPGQPPKLLIYAASTLASGVPSRFKGRGSGTQFTLTISDVQCDDAAMYVCAGAFSGSSDTRAFGGGTEVVVKG

Target: SARS-CoV-2 Spike S1 protein (SARS-CoV-2, UniProt P0DTC2 16-685)
Assay: not given

Binder | EC50 (read off the curve)
B1 | ~0.04 µg/mL

Target: T1, HcoV-NL63 S protein (HcoV-NL63, UniProt Q6Q1S2 19-1296)
T1 construct: also called hCov-NL63 S1
T1 sequence: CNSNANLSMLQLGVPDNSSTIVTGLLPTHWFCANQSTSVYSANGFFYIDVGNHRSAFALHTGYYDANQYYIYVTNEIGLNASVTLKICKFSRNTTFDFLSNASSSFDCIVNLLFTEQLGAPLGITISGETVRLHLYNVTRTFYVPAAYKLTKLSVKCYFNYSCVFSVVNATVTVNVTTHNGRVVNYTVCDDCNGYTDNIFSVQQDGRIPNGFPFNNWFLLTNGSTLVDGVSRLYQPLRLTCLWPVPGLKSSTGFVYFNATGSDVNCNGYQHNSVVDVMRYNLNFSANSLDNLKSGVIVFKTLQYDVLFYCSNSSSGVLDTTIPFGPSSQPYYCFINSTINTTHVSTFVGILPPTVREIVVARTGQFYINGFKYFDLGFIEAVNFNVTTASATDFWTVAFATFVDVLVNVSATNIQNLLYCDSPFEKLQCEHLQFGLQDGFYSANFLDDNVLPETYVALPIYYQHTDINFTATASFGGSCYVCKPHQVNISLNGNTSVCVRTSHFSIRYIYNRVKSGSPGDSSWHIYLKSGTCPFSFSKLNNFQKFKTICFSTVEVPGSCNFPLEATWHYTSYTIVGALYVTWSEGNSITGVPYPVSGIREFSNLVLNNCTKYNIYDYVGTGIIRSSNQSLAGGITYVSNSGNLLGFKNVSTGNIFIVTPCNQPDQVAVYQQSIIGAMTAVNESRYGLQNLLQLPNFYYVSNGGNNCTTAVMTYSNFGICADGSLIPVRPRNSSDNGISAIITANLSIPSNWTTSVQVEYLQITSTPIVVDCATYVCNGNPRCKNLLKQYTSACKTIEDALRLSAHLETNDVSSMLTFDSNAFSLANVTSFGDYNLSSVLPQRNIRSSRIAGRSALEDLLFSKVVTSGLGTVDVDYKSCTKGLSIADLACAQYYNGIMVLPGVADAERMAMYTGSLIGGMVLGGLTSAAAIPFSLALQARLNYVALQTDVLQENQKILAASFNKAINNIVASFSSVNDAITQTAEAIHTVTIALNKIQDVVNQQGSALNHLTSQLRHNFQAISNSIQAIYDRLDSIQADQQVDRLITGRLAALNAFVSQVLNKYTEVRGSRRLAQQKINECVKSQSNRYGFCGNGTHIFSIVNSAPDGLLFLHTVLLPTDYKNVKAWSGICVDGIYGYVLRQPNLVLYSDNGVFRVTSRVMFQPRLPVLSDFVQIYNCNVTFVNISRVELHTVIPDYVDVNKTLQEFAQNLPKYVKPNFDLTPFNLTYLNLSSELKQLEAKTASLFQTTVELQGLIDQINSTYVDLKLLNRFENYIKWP
Assay: direct ELISA, OD450

Binder | binding result
B2 | no binding
B3 | no binding
B1 | no binding
B4 | no binding
B5 | no binding

Target: T2, HcoV-OC43 S protein (HcoV-OC43, UniProt P36334 14-1297)
T2 sequence: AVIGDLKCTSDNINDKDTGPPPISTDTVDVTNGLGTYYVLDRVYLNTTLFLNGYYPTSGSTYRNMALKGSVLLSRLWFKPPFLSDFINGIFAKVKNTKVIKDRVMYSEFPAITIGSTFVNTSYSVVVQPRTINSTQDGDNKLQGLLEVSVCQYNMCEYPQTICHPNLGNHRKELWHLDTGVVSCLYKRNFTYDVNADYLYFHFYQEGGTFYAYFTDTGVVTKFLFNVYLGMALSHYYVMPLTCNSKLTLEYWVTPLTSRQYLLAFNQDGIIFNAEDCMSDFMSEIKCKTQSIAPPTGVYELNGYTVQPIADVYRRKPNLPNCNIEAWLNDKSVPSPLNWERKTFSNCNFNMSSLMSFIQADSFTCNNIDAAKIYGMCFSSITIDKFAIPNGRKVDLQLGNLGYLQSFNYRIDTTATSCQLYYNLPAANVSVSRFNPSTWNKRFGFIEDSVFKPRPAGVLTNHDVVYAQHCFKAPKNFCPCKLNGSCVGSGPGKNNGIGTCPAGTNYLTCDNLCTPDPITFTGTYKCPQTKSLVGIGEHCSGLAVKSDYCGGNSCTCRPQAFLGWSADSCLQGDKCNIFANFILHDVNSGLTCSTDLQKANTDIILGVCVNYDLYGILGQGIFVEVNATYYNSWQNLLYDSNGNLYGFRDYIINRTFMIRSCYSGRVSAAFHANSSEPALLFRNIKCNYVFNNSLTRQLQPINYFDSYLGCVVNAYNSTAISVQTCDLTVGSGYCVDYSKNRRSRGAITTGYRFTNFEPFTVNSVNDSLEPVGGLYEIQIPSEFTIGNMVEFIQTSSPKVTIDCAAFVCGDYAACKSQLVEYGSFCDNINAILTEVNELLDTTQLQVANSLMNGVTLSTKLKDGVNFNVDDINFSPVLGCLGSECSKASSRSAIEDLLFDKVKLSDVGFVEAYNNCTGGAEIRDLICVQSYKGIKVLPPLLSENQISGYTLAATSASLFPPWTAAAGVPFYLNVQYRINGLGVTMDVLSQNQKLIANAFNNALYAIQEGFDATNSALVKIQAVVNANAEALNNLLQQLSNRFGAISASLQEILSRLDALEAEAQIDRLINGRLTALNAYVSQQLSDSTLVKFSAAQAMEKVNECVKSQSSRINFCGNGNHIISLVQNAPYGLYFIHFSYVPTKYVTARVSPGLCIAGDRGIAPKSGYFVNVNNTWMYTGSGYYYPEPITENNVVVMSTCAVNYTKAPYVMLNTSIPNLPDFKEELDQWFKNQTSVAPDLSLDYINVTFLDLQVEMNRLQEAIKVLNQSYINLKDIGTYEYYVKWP
Assay: direct ELISA, OD450

Binder | binding result
B2 | no binding
B3 | no binding
B1 | no binding
B4 | no binding
B5 | no binding

Target: T3, RBD (receptor binding domain) of the SARS-CoV-2 S1 (SARS-CoV-2, UniProt P0DTC2 319-541)
T3 construct: domain: RBD; also called RBD domain protein
Assay: direct antigen ELISA, RBD coated, antibody titrated, anti-rabbit IgG-HRP

Binder | binding result
B3 | no binding (tested: 1000 ng/ml)
B5 | no binding (tested: 1000 ng/ml)
